Results from article PMC11909895.

How the values were obtained:
[1] = biological target: beta-Nrxn1ΔC, C-terminal truncated mutant beta-Nrxn1 (-AS4); test: co-IP; HA antibody (clone 3F10) and Protein-G Sepharose from cortex lysates of adult control and beta-Nrxn1ΔC mice (untreated, or DOX 14 days then 30 days re-expression); lysis buffer 20 mM Tris-HCl pH 7.5, 100 mM NaCl, 5 mM MgCl2, 5 mM CaCl2, 1% Triton X-100; blots for Nlgn1, Nlgn2, Nlgn3, LRRTM2
[2] = biological target: beta-Nrxn1ΔC, C-terminal truncated mutant beta-Nrxn1 (-AS4); test: co-IP; HA antibody (clone 3F10) and Protein-G Sepharose from striatum lysates of adult control and beta-Nrxn1ΔC mice; lysis buffer 20 mM Tris-HCl pH 7.5, 100 mM NaCl, 5 mM MgCl2, 5 mM CaCl2, 1% Triton X-100; blots for Nlgn1, Nlgn2, Nlgn3, LRRTM2

Q: For “Nlgn1 (neuroligin-1) (from UniProt Q99K10 46-843) (natural protein)”, which Nlgn1 levels in the co-immunoprecipitates as percentage of total Nlgn1 in the initial lysates [1] is on record?
A: The Nlgn1 levels in the co-immunoprecipitates as percentage of total Nlgn1 in the initial lysates was 5.01%.

Q: And the Nlgn1 levels in the co-immunoprecipitates as percentage of total Nlgn1 in the initial lysates [2]?
A: Its Nlgn1 levels in the co-immunoprecipitates as percentage of total Nlgn1 in the initial lysates is 1.74%.
